Assay [1] concerns the target T1, IL-3Rα/GM-CSFRα chimeric protein, B domain of IL-3Rα replaced by that of GM-CSFRα, on HEK293T cells (human, UniProt P15509 115-213).
T1 construct: domain: B domain; The KpnI sites (GGTACC) at both junctions each encode an extra Gly-Thr; also called B domain substitution
T1 sequence: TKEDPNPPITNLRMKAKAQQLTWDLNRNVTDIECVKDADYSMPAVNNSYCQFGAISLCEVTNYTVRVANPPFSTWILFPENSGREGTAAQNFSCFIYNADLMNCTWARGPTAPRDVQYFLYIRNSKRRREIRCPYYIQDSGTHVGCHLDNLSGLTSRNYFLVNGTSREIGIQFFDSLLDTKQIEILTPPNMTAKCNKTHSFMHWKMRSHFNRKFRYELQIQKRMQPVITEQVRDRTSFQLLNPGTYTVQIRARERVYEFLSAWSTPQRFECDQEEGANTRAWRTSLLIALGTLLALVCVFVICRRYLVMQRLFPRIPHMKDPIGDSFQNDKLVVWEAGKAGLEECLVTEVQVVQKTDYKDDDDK
The experiment in a line: flow cytometry, labelled antibody at 1 µg/ml, HEK293T cells expressing the construct. How it is done:
(§1) HEK293T cell (ATCC CRL 1268) was used for the preparation of the IL-3Rα/GM-CSFRα chimeric protein expression cell. Using 293Fectin (Invitrogen), the plasmid DNA obtained in the above was introduced as an expression vector into the HEK293T. The HEK293T to which the expression vector was introduced was cultured using a shaker under conditions of 5% CO₂ and 37° C. after 2 days of the introduction, the […] was used for in the flow cytometry analysis.
(§2) From 100,000 to 1,000,000 cells of the chimeric protein expression cell were allowed to react for 30 minutes on ice with at a concentration of 1 μg/ml with an AlexaFlour488-labeled human antibody or a commercially available FITC-labeled anti-IL-3Rα mouse antibody (7G3 or 9F5: both from BD Biosciences, 6H6: Acris Antibodies, AC145: Milteny Biotech, 107D2.08: Dendritics). A staining medium (Dulbecco's PBS supplemented with 2% fetal bovine serum, 2 mM EDTA and 0.05% NaN₃) was used for the dilution of antibodies and cells. Next, the cells reacted with antibodies were washed three times with the staining medium and whether the labeled antibody bound to the cell was confirmed by flow cytometry.
On the technique in general: A flow cytometer gives signals particle by particle.

Assay [2] addresses T2, soluble form of human IL-3Rα protein (extracellular region with C-terminal FLAG tag) (human, UniProt P26951 19-305).
T2 construct: Made in CHOras1 cells, purified on anti-FLAG gel; also called soluble form of IL-3Rα protein; soluble form of human IL-3Rα extracellular region
T2 sequence: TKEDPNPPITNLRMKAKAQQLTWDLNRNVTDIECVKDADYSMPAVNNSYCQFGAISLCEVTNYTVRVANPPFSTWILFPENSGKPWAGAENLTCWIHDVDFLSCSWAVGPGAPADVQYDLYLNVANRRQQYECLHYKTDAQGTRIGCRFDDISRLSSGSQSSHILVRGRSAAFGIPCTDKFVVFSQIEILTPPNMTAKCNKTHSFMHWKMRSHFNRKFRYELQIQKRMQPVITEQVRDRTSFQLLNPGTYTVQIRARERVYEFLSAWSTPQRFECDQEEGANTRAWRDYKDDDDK
The experiment in a line: SPR (Biacore 2000): antibody captured on anti-human antibody CM5 chip, soluble IL-3Rα as analyte, 1:1 Langmuir fit. As to the method: Specifically, CM5 (research grade) was used for a sensor tip (each GE). Firstly, the CM5 tip was activated by applying an equivalent mixture of 400 mM EDC (N-ethyl-N′-(3-dimethylaminopropyl)carbodiimidehydrochloride) and 100 mM NHS (N-hydroxysuccinimide) to the CM5 tip. Next, an antibody to the human antibody attached to the Human Antibody Capture Kit (GE) (hereinafter, referred to as anti-human antibody antibody) was diluted with the solution attached to the kit and applied thereto, thereby immobilizing the required amount of the anti-human antibody antibody to the CM5 tip. Regarding the mouse antibody to be used as a control, an antibody to the mouse antibody attached to the Mouse Antibody Capture Kit (GE) (hereinafter, referred to as anti-mouse antibody antibody) was diluted with the solution attached to the kit and applied thereto, thereby immobilizing a necessary amount thereof to the CM5 tip. Next, the surface of the activated tip was blocked and inactivated by applying 1 M of ethanolamine dihydrochloride thereto. By the above steps until this, preparation of a CM5 sensor tip which can measure the dissociation constant KD was completed.
Next, each of anti-IL-3Rα antibodies, was diluted to give a concentration of 5 μg/ml with HBS-FP buffer (GE) one kind per one flow cell and applied, thereby allowing it to bind to the immobilized anti-human antibody antibody or anti-mouse antibody antibody. Next, the soluble form of IL-3Rα protein was applied thereto. In order to dissociate the bound anti-IL-3Rα antibody and soluble form of IL-3Rα protein, 3 M MgCl₂ attached to Human Antibody Capture Kit or pH 1.7 of Glycine-HCl attached to Mouse Antibody Capture Kit was applied in the amount attached to the kit. The steps until this were regarded as one step. By repeating the same steps using two or more concentrations of the soluble form of IL-3Rα protein, data for calculating association and dissociation constants (sensorgram) were obtained.
In the analysis, Biaevaluation software (GE) was used and Biaevaluation Software Handbook was referred. Specifically, by carrying out simultaneous analysis of kinetics analysis, employing basically the 1:1 Langmuir binding reaction model and fitting, association rate constant (Ka) and dissociation rate constant (Kd) were calculated, and the value of dissociation constant KD was calculated by the calculation of Kd/Ka.

The target of assay [3] is T3, IL-3Rα/GM-CSFRα chimeric protein, region 6 (182-ILVRGRS-188) of IL-3Rα replaced by GM-CSFRα sequence, on … (human, UniProt P26951 19-378).
T3 construct: also called Region 6 (B)
T3 chain: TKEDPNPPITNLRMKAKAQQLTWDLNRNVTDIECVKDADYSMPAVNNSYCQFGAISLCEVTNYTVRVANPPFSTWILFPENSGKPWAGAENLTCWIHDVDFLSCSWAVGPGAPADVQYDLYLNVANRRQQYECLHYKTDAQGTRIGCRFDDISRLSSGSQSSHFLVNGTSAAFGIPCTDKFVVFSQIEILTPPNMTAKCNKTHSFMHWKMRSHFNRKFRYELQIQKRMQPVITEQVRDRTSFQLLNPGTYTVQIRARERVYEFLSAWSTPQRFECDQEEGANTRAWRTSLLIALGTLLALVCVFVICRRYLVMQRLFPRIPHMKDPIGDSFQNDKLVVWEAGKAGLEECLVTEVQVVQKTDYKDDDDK
The experiment in a line: flow cytometry, labelled antibody at 1 µg/ml, HEK293T cells expressing the construct.

For assay [4], the target named is T4, IL-3Rα/GM-CSFRα chimeric protein, region 7 (192-GIPCTDK-198) of IL-3Rα replaced by GM-CSFRα sequence, on … (human, UniProt P26951 19-378).
T4 construct: also called Region 7 (B)
T4 chain: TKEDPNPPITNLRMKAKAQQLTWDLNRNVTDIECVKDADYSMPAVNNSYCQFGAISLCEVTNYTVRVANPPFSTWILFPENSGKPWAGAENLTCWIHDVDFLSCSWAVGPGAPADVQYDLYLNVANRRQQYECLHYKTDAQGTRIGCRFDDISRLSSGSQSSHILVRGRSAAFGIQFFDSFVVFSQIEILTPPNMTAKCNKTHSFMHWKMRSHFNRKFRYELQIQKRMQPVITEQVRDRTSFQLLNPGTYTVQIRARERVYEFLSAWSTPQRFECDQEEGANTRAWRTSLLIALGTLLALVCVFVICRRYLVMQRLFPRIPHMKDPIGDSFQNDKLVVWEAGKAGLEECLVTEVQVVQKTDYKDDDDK
The assay is described as above.

Assay [5] addresses T5, IL-3Rα/GM-CSFRα chimeric protein, C domain of IL-3Rα replaced by that of GM-CSFRα, on HEK293T cells (human, UniProt P15509 214-327).
T5 construct: domain: C domain; KpnI sites at both junctions each encode an extra Gly-Thr; also called C domain substitution
T5 sequence: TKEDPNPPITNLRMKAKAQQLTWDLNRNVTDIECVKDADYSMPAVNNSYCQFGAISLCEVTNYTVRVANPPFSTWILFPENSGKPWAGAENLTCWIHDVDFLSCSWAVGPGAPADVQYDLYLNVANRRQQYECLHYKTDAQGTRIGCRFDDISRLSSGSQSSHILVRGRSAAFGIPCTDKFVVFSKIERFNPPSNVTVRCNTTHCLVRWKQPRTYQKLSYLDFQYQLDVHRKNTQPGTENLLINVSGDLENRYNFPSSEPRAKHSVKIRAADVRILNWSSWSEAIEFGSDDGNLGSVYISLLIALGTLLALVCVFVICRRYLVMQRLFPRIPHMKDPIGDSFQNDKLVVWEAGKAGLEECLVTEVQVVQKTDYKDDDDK
The assay is described as above. As to the method: as §1, §2

B1: Old4 anti-human IL-3Rα human antibody (antibody, human IgG1, V domains shown)
VH: QVQLLQSGAEVKKPGSSVKVSCKASGGTFSTYAISWVRQAPGQGLEWMGGIIPIFGIVNYAQKFQGRVTITADESTSTAYMELSSLRSEDTAVYYCARGGGSGPDVLDIWGQGTMVTVSS
VL: VIWMTQSPSLLSASTGDRVTISCRMSQGIRSYLAWYQQKPGKAPELLIYAASTLQSGVPSRFSGSGSGTDFTLTISSLQSEDFATYYCQQYYSFPYTFGQGTKLEIK
notes: Human antibody from KM mouse hybridoma; recombinant form made in N5KG1-Val Lark vector (human IgG1, kappa) in HEK293F
Regarding B1, in assay [1], the binding result is recorded as “no binding (tested: 1 µg/ml)”.

B2: Old5 anti-human IL-3Rα human antibody (antibody, human IgG1, V domains shown)
VH: QVQLVQSGAEVKKPGSSVKVSCKASGGTFSTYAISWVRQAPGQGLEWMGGLIPIFDIENYAQKFQGRVTITADESTSTVYMELSSLRSEDTAMYYCARGGGSGPDVLDIWGQGTMVTVSS
VL: VIWMTQSPSLLSASTGDRVTISCRMSQGIRSYLAWYQQKPGKAPELLIYAASTLQSGVPSRFSGSGSGTDFTLTISSLQSEDFATYYCQQYYSFPYTFGQGTKLEIK
notes: Human antibody; recombinant form in N5KG1-Val Lark vector (human IgG1, kappa)
With B2, the binding result in assay [1] is recorded as “no binding (tested: 1 µg/ml)”.

B3: Old17 anti-human IL-3Rα human antibody (antibody, human IgG1, V domains shown)
VH: QVQLVQSGAEVKKPGSSVKVSCKTSGGTFSNFAISWVRQAPGQGLEWMGGIIPIFGSTNYAQKFQGRVTINADESTSTAYMELSSLRSEDTAVYYCAGGDKYGPYYFHYWGQGTLVTVSS
VL: DIQMTQSPSSLSASVGDRVTITCRASQGISSWLAWYQQKPEKAPKSLIYAASSLQSGVPSRFSGSGSGTDFTLTISSLQPEDFATYYCQQYNSYPYTFGQGTKLEIK
notes: as for B2
As a reminder, the Kd is a measure of binding affinity in units of concentration. Lower therefore signals tighter binding. In turn, B3 had a Kd in assay [2] of 1.43 nM.

B4: New102 anti-human IL-3Rα human antibody (antibody, human IgG1, V domains shown)
VH: QVQLVQSGAEVKKPGSSVKVSCMASGGTVSSYAISWVRQAPGQGLEWMGEIIPIFGIVNYAQKFQGRVTITADESTNTAYMELSSLRSEDTAIYYCARETAVAGILGYWGQGTLVTVSS
VL: DIQMTQSPSSLSASVGDRVTITCRASQGISSWLAWYQQKPEKAPKSLIYAASSLQSGVPSRFSGSGSGTDFTLTISSLQPEDFATYYCQQYNSYPYTFGQGTKLEIK
notes: as for B2
With B4, the binding result in assay [3], in assay [4] and in assay [1] was “no binding (tested: 1 µg/ml)” throughout. In assay [2], this molecule displayed a Kd of 0.798 nM.

B5: Old6 anti-human IL-3Rα human antibody (antibody, human IgG1, V domains shown)
VH: EVQLVESGGGLVKPGGSLRLSCAASGFTFSSHNMNWVRQAPGKGLEWVSSISSSSSYIYYADSVKGRFTISRDNAKNSLYLQMNSLRAEDTAVYYCAREDWGYFDYWGQGTLVTVSS
VL: AIQLTQSPSSLSASVGDRVTITCRASQGISSDLAWYQQKPGKAPKLLIYDASSLESGVPSRFSGSGSGTDFTLTISSLQPEDFATYYCQQFNSYPFTFGPGTKVDIK
notes: Human antibody
Take B5: the binding result in assay [5] and in assay [1] was “no binding (tested: 1 µg/ml)” throughout. Also, the Kd in assay [2] is 1.26 nM.

B6: chimeric 7G3 antibody (mouse 7G3 variable regions, human IgG1 constant region) (antibody, V domains shown)
VH: EVQLQQSGPELVKPGASVKMSCKASGYTFTDYYMKWVKQSHGKSLEWIGDIIPSNGATFYNQKFKGKATLTVDRSSSTAYMHLNSLTSEDSAVYYCTRSHLLRASWFAYWGQGTLVTVSA
VL: DFVMTQSPSSLTVTAGEKVTMSCKSSQSLLNSGNQKNYLTWYLQKPGQPPKLLIYWASTRESGVPDRFTGSGSGTDFTLTISSVQAEDLAVYYCQNDYSYPYTFGGGTKLEIK
notes: also called 7G3 (Chimeric antibody)
The molecule B6 came in with an equilibrium dissociation constant (Kd) in assay [2] of 1.88 nM.

For the origin of these results see patent US20160280792A1 (Kyowa Kirin, published 2016).
